The text below walks through data of US20260209387A1, “SINGLE-DOMAIN ANTIBODY FOR INHIBITION OF NEUTROPHIL ELASTASE ACTIVITY” (UNIVERSITE DE LIEGE, priority 2023, published 2026).

Series [1] in a line: Urea-induced unfolding (intrinsic fluorescence, far UV-CD). The settings on record: pH 7, 25° C. The series is classed as physicochemical. The protocol:
1.11.1. Preparation of the samples. Samples of NbE201 were incubated overnight at 25° C. in the presence of increasing concentrations of urea (Sigma-Aldrich) in 0.05 M NaP buffer pH 7. The protein concentration was 0.2 mg mL-1. The denaturant concentration in each sample was determined from refractive index measurements (Pace, C. N., 1986, doi.org/10.1016/0076-6879 (86) 31045-0), using a R5000 hand refractometer from Atago (Tokyo, Japan). The same samples were used to measure both the intrinsic fluorescence and far ultraviolet circular dichroism (UV-CD) spectra. Blank samples (without the Nb) every 1 M urea were prepared to make a reference curve that was used to correct the contribution of (buffer+urea) for fluorescence and circular dichroism (CD) signal at each urea concentration.
1.11.2. Measurements of fluorescence and far-UV-CD signals/spectra. Intrinsic fluorescence spectra to monitor changes in the tertiary structure were recorded at 25° C. from 305 nm to 440 nm after excitation at 280 nm with 5 nm excitation and emission slits using a Cary Eclipse Fluorimeter (Agilent, Santa Clara, USA) equipped with a thermostatically controlled multi-cuvette holder and a 10*0.4 mm pathlength quartz micro cuvette. The voltage applied at the detector was 710 V. Data acquisition was made every 0.5 nm with a scan rate of 30 nm·min^−1.
Far UV-CD spectrum of the native and denatured states (i.e. in 9 M urea) were recorded from 190 nm to 260 nm in a 0.2 mm pathlength quartz cuvette at 25° C. […] were recorded with a 0.1 nm data interval, a data pitch of 0.1 nm, 2 s integration time, a bandwidth of 1 nm and a scanning speed of 50 nm/min. The unfolding transitions were monitored by far UV-CD at 207 nm in a 0.2 mm pathlength quartz cuvette. At each denaturant concentration, 37 data points were acquired with a 1 nm bandwidth, a reading frequency of 5 s and a 4 s integration time, and averaged. The measurements were carried out with Jasco J-810 spectropolarimeter, (JASCO, Lisses, France) equipped with a Peltier cell holder.
1.11.3. Data analysis. The intrinsic fluorescence spectra were fitted using a five parameter Weibull function (from software SigmaPlot 5.0) to determine the wavelength corresponding to the highest fluorescence intensity (λmax). The changes in fluorescence intensity at 337 nm were also used to monitor the unfolding transition. The transition curves obtained were analyzed based on a two-state (N ? U) model according to Dumoulin et al. (doi: 10.1110/ps.34602) and equation 1:
where x is the concentration in denaturant and a=(ΔG°NU(H2O)−m*[D])/RT, and yobs is the monitored signal (i.e. λmax, F337 nm or CD207 nm) at a given denaturant concentration, and YN and YU are the values of these signals for the native and denatured states, respectively in the absence of denaturant. ΔG°NU(H2O) is the difference in free energy between the folded and unfolded states at 25° C.; m is a measure of the dependence of the free energy on the denaturant concentration, and [D] is the denaturant concentration. p and q are the slopes of the pre- and post-unfolding baselines, respectively, R is the gas constant, and T is the absolute temperature. Cm, the denaturant concentration at the midpoint of the denaturation curve ([U]/[N]=1) is defined as ΔG°NU(H2O)/m.

Series [2] can be described thus: Heat-induced unfolding by far UV-CD at 206 nm. The settings on record: far UV-CD 206 nm; average of three batches; pH 7. The series is classed as physicochemical. The method, then:
1.12.1. Preparation of the samples and measurements. Samples of NbE201 in 0.05 M NaP buffer pH 7 were prepared at a protein concentration of 0.2 mg mL-1. All the experiments were carried out in 1 mm quartz cell and a JASCO J-810 CD spectrophotometer equipped with a Peltier cell-holder. Mineral oil was added on the top of the sample to avoid sample evaporation. The CD spectrum of the native and denatured states of the protein were recorded from 190 nm to 260 nm at 25° C. and at 97° C. 61 data points were recorded with a 1 nm data interval, a data pitch of 0.1 nm, 2 s integration time, a bandwidth of 1 nm and a scanning speed of 50 nm/min. Heat-induced unfolding was monitored by far UV-CD at 206 nm. […] Data were acquired with a reading frequency of 0.05 s^−1 using a 4 s integration time and a 1 nm bandwidth. […]
1.12.2. […] The transition curves obtained were analyzed based on a two-state (N ? U) model and Equation 1 where x is the temperature during the analysis and a=−(ΔHm (1−x/Tm))/RT (doi: 10.1016/j.jmb.2008.11.046), and yobs is the CD signal at 206 nm at a given temperature (x), and YN and YU are the values of these signals for the native and denatured states, respectively at 273K. p and q are the slopes of the pre- and post-transition baselines, respectively, R is the gas constant, and T is the absolute temperature. […]

A further series has as its target T1, hNE (Homo sapiens, UniProt P08246).
T1 construct: purchased Elastin Products Company (EPC)
T1 sequence (P08246 30-247): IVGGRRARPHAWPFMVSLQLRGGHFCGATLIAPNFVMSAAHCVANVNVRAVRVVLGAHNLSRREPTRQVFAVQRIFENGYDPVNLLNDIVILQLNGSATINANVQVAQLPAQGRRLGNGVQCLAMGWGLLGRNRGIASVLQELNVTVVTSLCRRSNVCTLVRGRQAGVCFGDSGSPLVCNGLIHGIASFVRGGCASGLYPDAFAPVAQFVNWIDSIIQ
Put plainly: hNE inhibition, hydrolysis of chromogenic substrate N-Succinyl-Ala-Ala-Ala-paraNitroAnilide. The series is classed as biochemical. The note with it: hNE vs mNE.

Method for hNE: Inhibition of the hydrolysis of a chromogenic substrate. […] Briefly, hNE (Elastin products company, EPC, United States) was resuspended at 1 mg·mL^−1 in 50 mM sodium acetate buffer pH 5 containing 100 mM NaCl and stored at 4° C. The substrate Succinyl-Ala-Ala-Ala-paraNitroAnilide was dissolved at 1 mM in 0.1 M Tris pH 7.5 with NaCl 0.5 M and NaN3 0.01% (% w/v) and stored at 4° C. 230 μl of substrate (1 mM) were mixed with 10 μl of Bovine Serum Albumin 9 μM (BSA, Sigma-Aldrich, Germany) and incubated 20 min at 25° C. in a clear flat bottom 96-well plate (Greiner Bio-One, Belgium). […] The absorbance at 410 nm was measured every min for 60 minutes in a SpectraMax M2e Microplates Reader (Molecular Devices, California, USA). The initial velocity determined in the presence of the ISVD at different Nb: hNE ratios was compared to that measured in the absence of the ISVD, to determine the residual activity. […]
The absorbance at 410 nm was measured every min for 60 minutes. The initial velocity determined in the presence of the inhibitor at different inhibitor: hNE ratios was compared to that measured in the absence of the inhibitor, to determine the residual activity. […] The hNE activity was monitored at 410 nm for 10 minutes using the spectrophotometer Specord 50 Plus (Analytik Jena) and data were collected with the WinAspectPlus software. […]

B1: NbE201: anti-hNE ISVD (VHH/nanobody) from immunized lama, amino acid sequence SEQ ID NO: 4 (protein)
VHH: QVQLQESGGGLVQAGGSLRLSCVVPGRTISLYRMGWFRQAPGKEREFVAGINWSGDMTDYVDSVKGRFTISRDNAKNTVYLEMNSLKPEDTAIYYCTADPKLLPLADSSYGYWGQGTQVTVSS
As to B1, the Cm in series [1] (CD) was 5.8 M; in series [1] (F (337 nm)), 5.8 M; in series [1] (F (λmax)), 6.0 M; in series [1] (Mean ± SD of the three probes) it was 5.9 ± 0.1 M. Also, the m in series [1] (CD) was 7.7 kJ · mol^−1 M^−1; in series [1] (F (337 nm)), 6.7 kJ · mol^−1 M^−1; in series [1] (F (λmax)) it was 6.5 kJ · mol^−1 M^−1; in series [1] (Mean ± SD of the three probes), 7.0 ± 0.5 kJ · mol^−1 M^−1. The “ΔG°NU(H2O)” value in series [1] (CD) was 10.6 kcal/mol; in series [1] (F (337 nm)), 9.32 kcal/mol; in series [1] (F (λmax)) it was 9.35 kcal/mol; in series [1] (Mean ± SD of the three probes), 9.75 ± 0.598 kcal/mol. Further, the “apparent temperature of unfolding (Tm^app)” value in series [2] stood at 70.7±1.5 °C. Also, the “inhibitory activity to hNE relative to mNE” value in the series with hNE was “about 10 times”.
